According to PMC10232555:

Target: Vim93-302-Eb1 (vimentin residues 93 to 302 followed by the Eb1 capping motif) (UniProt P08670)
Experiment: SEC-MALS; data not shown; HS conditions

stoichiometry N: 4
Substance: Vim93-302-Eb1 (vimentin residues 93 to 302 followed by the Eb1 capping motif) (from UniProt P08670 93-302) (domain or fragment)
